Assays:
Assay in all cases: crystal structure
[1] = target: NITR10 (D50N) V region protein (channel catfish (Ictalurus punctatus))
[2] = target: NITR10 V region protein (novel immune-type receptor 10, Ig V domain) (channel catfish (Ictalurus punctatus))
[3] = target: NITR11 (N50D) V region protein (channel catfish (Ictalurus punctatus))
[4] = target: NITR11 V domain and membrane proximal stalk region, disulfide-linked homodimer (channel catfish (Ictalurus punctatus))
[5] = target: NITR11 V region protein (novel immune-type receptor 11, Ig V domain) (channel catfish (Ictalurus punctatus))

Substance: NITR10 (D50N) V region protein (domain or fragment)
- stoichiometry N [1]: 2

Substance: NITR10 V region protein (novel immune-type receptor 10, Ig V domain) (domain or fragment)
- stoichiometry N [2]: 2

Substance: NITR11 (N50D) V region protein (domain or fragment)
- stoichiometry N [3]: 2

Substance: NITR11 V domain and membrane proximal stalk region, disulfide-linked homodimer (domain or fragment)
- stoichiometry N [4]: 2

Substance: NITR11 V region protein (novel immune-type receptor 11, Ig V domain) (domain or fragment)
- stoichiometry N [5]: 2

— article PMC2603606
